Assay results reported in patent publication US10294487B2, “Methods and compositions involving ALS variants with native substrate preference” (E I DU PONT DE NEMOURS AND COMPANY, priority 2012, dated 2019).
Positions count from the first letter of the chain named. Names may count otherwise.

B1: GM-ALS_D357E: Glycine Max ALS1 variant with a D→E mutation at position 357 (protein)
chain: MAATASRTTRFSSSSSHPTFPKRITRSTLPLSHQTLTKPNHALKIKCSISKPPTAAPFTKEAPTTEPFVSRFASGEPRKGADILVEALERQGVTTVFAYPGGASMEIHQALTRSAAIRNVLPRHEQGGVFAAEGYARSSGLPGVCIATSGPGATNLVSGLADALMDSVPVVAITGQVPRRMIGTDAFQETPIVEVSRSITKHNYLILDVDDIPRVVAEAFFVATSGRPGPVLIDIPKDVQQQLAVPNWDEPVNLPGYLARLPRPPAEAQLEHIVRLIMEAQKPVLYVGGGSLNSSAELRRFVELTGIPVASTLMGLGTFPIGDEYSLQMLGMHGTVYANYAVDNSDLLLAFGVRFDERVTGKLEAFASRAKIVHIDIDSAEIGKNKQAHVSVCADLKLALKGINMILEEKGVEGKFDLGGWREEINVQKHKFPLGYKTFQDAISPQHAIEVLDELTNGDAIVSTGVGQHQMWAAQFYKYKRPRQWLTSGGLGAMGFGLPAAIGAAVANPGAVVVDIDGDGSFIMNVQELATIRVENLPVKILLLNNQHLGMVVQWEDRFYKSNRAHTYLGDPSSESEIFPNMLKFADACGIPAARVTKKEELRAAIQRMLDTPGPYLLDVIVPHQEHVLPMIPSNGSFKDVITEGDGRTRY
modifications: ALS1 variant D357E
B2: GM-ALS_D357N: Glycine Max ALS1 variant with a D→N mutation at position 357 (protein)
chain: B1 chain with E357N
modifications: ALS1 variant D357N
B3: GM-ALS_W555L: Glycine Max ALS1 variant with a W→L mutation at position 555 (protein)
chain: B1 chain with E357D, W555L
modifications: ALS1 variant W555L
B4: GM-ALS_F559D: Glycine Max ALS1 variant with a F→D mutation at position 559 (protein)
chain: B1 chain with E357D, F559D
modifications: ALS1 variant F559D
B5: GM-ALS_F559L: Glycine Max ALS1 variant with a F→L mutation at position 559 (protein)
chain: B1 chain with E357D, F559L
modifications: F559L
B6: P197S: Chemical mutagenesis of A. thaliana plants; position P197, 178 (protein, UniProt P17597 56-670, looked up, variant P197S)
Acetolactate synthase, …: SSSPSSISAVLNTTTNVTTTPSPTKPTKPETFISRFAPDQPRKGADILVEALERQGVETVFAYPGGASMEIHQALTRSSSIRNVLPRHEQGGVFAAEGYARSSGKPGICIATSGPGATNLVSGLADALLDSVPLVAITGQVSRRMIGTDAFQETPIVEVTRSITKHNYLVMDVEDIPRIIEEAFFLATSGRPGPVLVDVPKDIQQQLAIPNWEQAMRLPGYMSRMPKPPEDSHLEQIVRLISESKKPVLYVGGGCLNSSDELGRFVELTGIPVASTLMGLGSYPCDDELSLHMLGMHGTVYANYAVEHSDLLLAFGVRFDDRVTGKLEAFASRAKIVHIDIDSAEIGKNKTPHVSVCGDVKLALQGMNKVLENRAEELKLDFGVWRNELNVQKQKFPLSFKTFGEAIPPQYAIKVLDELTDGKAIISTGVGQHQMWAAQFYNYKKPRQWLSSGGLGAMGFGLPAAIGASVANPDAIVVDIDGDGSFIMNVQELATIRVENLPVKVLLLNNQHLGMVMQWEDRFYKANRAHTFLGDPAQEDEIFPNMLLFAAACGIPAARVTKKADLREAIQTMLDTPGPYLLDVICPHQEHVLPMIPSGGTFNDVITEGDGRIKY

system: G. max ALS1 protein; assay: Colorimetric ALS kinetic assay (Km, kcat) with pyruvate as substrate; assay type: biochemical, Glycine max; conditions: not given
Procedure, shortened: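 Recombinant soybean ALS variants, mature N-terminus from S48, His-MBP tag cleaved off; 0.8 ug enzyme per well in 25 mM potassium phosphate, 15 mM MgCl2, 0.7 mM TPP, 28 uM FAD, 0.2 mg/ml BSA, 0-100 mM pyruvate. Km and Vmax from hyperbolic fit; kcat from Vmax and protein concentration.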

| Molecule | Km [mM] | kcat [s⁻¹] |
| --- | --- | --- |
| B1 | 3 | 2.8 |
| B2 | 6 | 2.5 |
| B3 | 1.8 | 1.08 |
| B4 | 20 | 0.417 |
| B5 | 6 | 1.78 |

system: G. max ALS1 protein; assay: Substrate specificity ratio (Rf), pyruvate versus 2-ketobutyrate, LC-MS of reduced products; assay type: biochemical, Glycine max; conditions: ratio of [pyruvate] to [2-ketobutyrate] giving equal rates of acetolactate and acetohydroxybutyrate formation; 25 mM pyruvate
Procedure, shortened: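 Pyruvate was held at 25 mM while 2-ketobutyrate was varied. Reactions were quenched with sodium borohydride, and the reduced acetolactate and acetohydroxybutyrate were separated on C18 with a methanol gradient and quantified by MS integration. Rf is the [pyruvate]/[2-ketobutyrate] ratio that gives equal formation rates of both products.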

| Molecule | Substrate specificity ratio (Rf) |
| --- | --- |
| B1 | 67.6 |
| B2 | 72.0 |
| B3 | 2.6 |
| B4 | 96.0 |
| B5 | 62.5 |

system: ALS; assay: not given; conditions: IP (abbreviation not defined); cited from earlier work

| Molecule | Resistance pattern, I50 fold increase: IP |
| --- | --- |
| B6 | IP, 2 fold |

same assay, conditions: chlorsulfuron; cited from earlier work

| Molecule | Resistance pattern, I50 fold increase: CS |
| --- | --- |
| B6 | CS, 1000 fold |
